Results: the supplement of paper PMC9112550, “Optimization of the antimicrobial peptide Bac7 by deep mutational scanning” (BMC Biology, 2022)

The sequences below were run on Escherichia coli TOP10 (assay: shrunken log2 fold change of peptide-encoding DNA abundance (4.5 h post-induction vs induction); higher = less antimicrobial activity (less host growth inhibition)). Conditions: time post-induction: 4.5 h; library: site-saturation at positions 5, 18, 19, 20.
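Further: peptides expressed intracellularly from a pBAD plasmid library in pooled LB shake-flask culture, induced with 0.3% L-arabinose, DNA abundance read by NGS, three biological replicates, DESeq2 with apeglm shrinkage.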

Sequence	shrunken log2 fold change
RRIRHRPPRLPRPRPRPSQFPRP	-0.247
RRIRIRPPRLPRPRPRPLNCPRP	-0.0654
RRIRYRPPRLPRPRPRPVPRPRP	0.204
RRIRNRPPRLPRPRPRPTWEPRP	0.102
RRIRRRPPRLPRPRPRPCMEPRP	-0.174
RRIRCRPPRLPRPRPRPMLIPRP	-0.552
RRIRCRPPRLPRPRPRPINTPRP	-0.329
RRIRLRPPRLPRPRPRPWKWPRP	-0.184
RRIRRRPPRLPRPRPRPQSWPRP	0.519
RRIRDRPPRLPRPRPRPEIDPRP	0.0535
RRIRQRPPRLPRPRPRPFVLPRP	-0.277
RRIRFRPPRLPRPRPRPCEAPRP	0.122
RRIRPRPPRLPRPRPRPCVSPRP	-0.0858
RRIRSRPPRLPRPRPRPNSRPRP	-0.105
RRIRFRPPRLPRPRPRPALQPRP	-0.142
RRIRCRPPRLPRPRPRPGGKPRP	-0.0361
RRIRVRPPRLPRPRPRPENYPRP	-0.0159
RRIRSRPPRLPRPRPRPMMMPRP	-0.83
RRIRLRPPRLPRPRPRPYYQPRP	-0.0534
RRIRWRPPRLPRPRPRPDSPPRP	0.0588

Sequence	shrunken log2 fold change
RRIRERPPRLPRPRPRPAHLPRP	0.301
RRIRCRPPRLPRPRPRPWRTPRP	-0.166
RRIRARPPRLPRPRPRPHGWPRP	0.184
RRIRNRPPRLPRPRPRPKISPRP	-0.484
RRIRCRPPRLPRPRPRPTPSPRP	0.736
RRIRYRPPRLPRPRPRPIQLPRP	-0.0605
RRIRCRPPRLPRPRPRPPKLPRP	0.0685
RRIRERPPRLPRPRPRPVKLPRP	-0.0426
RRIRPRPPRLPRPRPRPFELPRP	-0.284
RRIRWRPPRLPRPRPRPFGCPRP	-0.274
RRIRRRPPRLPRPRPRPQTFPRP	0.264
RRIRRRPPRLPRPRPRPDLNPRP	0.16
RRIRRRPPRLPRPRPRPRYEPRP	0.0341
RRIRFRPPRLPRPRPRPRETPRP	0.0137
RRIRQRPPRLPRPRPRPPDLPRP	0.404
RRIRQRPPRLPRPRPRPYMGPRP	-0.00992
RRIRNRPPRLPRPRPRPNLFPRP	-0.225
RRIRCRPPRLPRPRPRPSSQPRP	-0.377
RRIRLRPPRLPRPRPRPQCGPRP	0.0192
RRIRYRPPRLPRPRPRPYPKPRP	-0.201

Sequence	shrunken log2 fold change
RRIRIRPPRLPRPRPRPVHSPRP	-0.0158
RRIRIRPPRLPRPRPRPNLFPRP	-0.512
RRIRGRPPRLPRPRPRPLIIPRP	-0.05
RRIRTRPPRLPRPRPRPFRTPRP	-0.146
RRIRARPPRLPRPRPRPKHLPRP	0.417
RRIRPRPPRLPRPRPRPYCKPRP	-0.896
RRIRVRPPRLPRPRPRPLNLPRP	-0.304
RRIRSRPPRLPRPRPRPHLTPRP	-0.0599
RRIRGRPPRLPRPRPRPRDAPRP	1.21
RRIRDRPPRLPRPRPRPVKKPRP	-0.0221
RRIRIRPPRLPRPRPRPQNIPRP	-1.22
RRIRKRPPRLPRPRPRPGRIPRP	-0.0354
RRIRPRPPRLPRPRPRPQLDPRP	0.314
RRIRPRPPRLPRPRPRPKSCPRP	0.0347
RRIRRRPPRLPRPRPRPASGPRP	0.302
RRIRFRPPRLPRPRPRPCWDPRP	-0.0535
RRIRWRPPRLPRPRPRPLMKPRP	-0.0639
RRIRKRPPRLPRPRPRPQVGPRP	0.0646
RRIRSRPPRLPRPRPRPDCWPRP	0.362
RRIRVRPPRLPRPRPRPWLCPRP	-0.144
